Format in all cases: biochemical, bovine
Assay [1] deals with T1, BSA (Bos taurus, UniProt P02769).
T1 construct: purchased Sigma-Aldrich A3059
As to the kind of experiment: Tryptic digestion of BSA followed with Nile Red. As to conditions: Nile Red reporter dye. Here is the method: • As per Example 2 above. • Nile Red (20 mM in ethanol, Sigma-Aldrich, 73189) diluted to 100-fold in 50 mM bicine
As per Example 2 except the Fluorostar plate reader was set to 520 nm excitation and 630 (±10 nm) bandpass emission filter.

Assay [2] deals with T1, BSA. Kind of assay: Tryptic digestion of BSA followed with SYPROorange. As to conditions: SYPROorange reporter dye. Here is the method:
• As per Example 2 above. • SYPROorange (24 mM in DMSO, Molecular Probes) diluted to 100-fold in 50 mM bicine
As per Example 2 except the Fluorostar plate reader was set to 480 nm excitation and 600 (±10 nm) bandpass emission filter.

The target of assay [3] is T1, BSA. As to the kind of experiment: Real-time monitoring of BSA proteolysis with different fluorophores in the presence of detergent (Example 7). As to conditions: method of example 7, real-time with fluorophore and SDS. As to the method: • 1 Trypsin and papain digestion was carried out in bicine buffer at pH 8.4 and pH 7.0, respectively. • 2 BSA was prepared in 10 mg/mL in 100 mM bicine buffer. • 3 One hundred microliter of the BSA sample was used for trypsin and papain digestion.
7.2.2 Real-Time Monitoring of Trypsin Digestion with Fluorophores in the Presence of a Detergent • 1. The reduced and denatured BSA sample was diluted 10-fold in 100 mM bicine buffer (25 μL+225 μL bicine buffer). • 2. One hundred microliter of the sample (step 1) was added to a well in a 96-well microtiter plate. Controls included a bicine-based digestion buffer, a trypsin sample or papain only and an undigested BSA sample (no trypsin or no papain). The assay consists of a 4-well sample set for one fluorophore, e.g. SYPROorange. Three sets of samples were prepared in the same manners for the remaining fluorophores, e.g. Nile red, epicocconone and […]. • 3. SYPROorange stock solution was diluted 5000-fold in the bicine buffer (pH 8.4). Nile red and epicocconone and stock solutions were diluted 100-fold in the 100 mM bicine (pH 8.5). ANS was diluted 100-fold in the bicine buffer (pH 7.0). • 4. […] Fluorescence development was monitored in real time every 2 minutes up to 400 minutes using FluoStar (Ex/Em=485/600±10 for SYPROorange; 540±10/630±10 for epicocconone and Nile red; 355/460 for ANS). […]

In assay [4] the target is T1, BSA. Kind of assay: SDS-PAGE validation of BSA proteolysis in the presence of different fluorophores (Example 7). As to conditions: after 120 minutes. From the text:
The normalised data were used for Prism analysis for obtaining the rate constants. In each case, the protein with fluorophore (open squares) is fitted to a single phase exponential decay (Y=span*exp(−kX)+plateau) and the value for k used as the fixed value for k1 in a two phase exponential decay (Y=span1*exp(−k1X)+span2*exp(−k2X)+plateau) for the protein plus papain (open circles). Through this method it was possible to measure the rate constants for hydrolysis and predict the time point for complete hydrolysis. […] It can be seen from this figure that the bands associated with the protein have disappeared after 120 minutes and that only a faint band for residual papain or trypsin can be seen. In some cases there are also some larger peptide fragments remaining after digestion that are resistant to further hydrolysis.

Assay [5] addresses T1, BSA. As to the kind of experiment: Tryptic digestion without dye, sub-sampled and quenched with protease inhibitors, then read with epicocconone (Example 8). The conditions noted are these: no dye during digestion; sub-sampling and quenching with protease inhibitors. As to the method:
1. The trypsin inhibitors, leupeptin and trypsin-inhibitor (soybean) were prepared at a concentration of 1 mM in RO water and 0.48 mg/mL in RO water, respectively. 2. The protein samples were prepared as previously described in Example 6. The reduced and alkylated protein samples were diluted 1:10 in 100 mM bicine buffer (pH 8.4-5). 3. Trypsin (4.62 μg) was added to each protein sample (231 μg/300 μL) at a ratio of 1:50 and the samples were incubated at 37° C. 4. Sub-samples were collected for inhibition of trypsin activity either by leupeptin or by trypsin inhibitor (soybean). • a. Forty-five microlitres of the tryptic digests were sub-sampled at 0, 10, 20, 30, 60, […], 90, and 120 minutes and immediately added to 1.5 mL tubes containing 5 μL of 1 mM leupeptin. The sub-samples treated with leupeptin inhibitor were left at room temperature until fluorescence was read. • b. […] The sub-samples treated with soybean trypsin inhibitor were left at room temperature until fluorescence was read. […] Fluorescence of the sub-samples was read at Ex/Em=540-10/630-10 nm with 10 flashes. […] The fluorescence value was normalised by subtracting basal fluorescence of corresponding controls from the raw fluorescence of the sub-samples. […]

T1 sequence (P02769 25-607): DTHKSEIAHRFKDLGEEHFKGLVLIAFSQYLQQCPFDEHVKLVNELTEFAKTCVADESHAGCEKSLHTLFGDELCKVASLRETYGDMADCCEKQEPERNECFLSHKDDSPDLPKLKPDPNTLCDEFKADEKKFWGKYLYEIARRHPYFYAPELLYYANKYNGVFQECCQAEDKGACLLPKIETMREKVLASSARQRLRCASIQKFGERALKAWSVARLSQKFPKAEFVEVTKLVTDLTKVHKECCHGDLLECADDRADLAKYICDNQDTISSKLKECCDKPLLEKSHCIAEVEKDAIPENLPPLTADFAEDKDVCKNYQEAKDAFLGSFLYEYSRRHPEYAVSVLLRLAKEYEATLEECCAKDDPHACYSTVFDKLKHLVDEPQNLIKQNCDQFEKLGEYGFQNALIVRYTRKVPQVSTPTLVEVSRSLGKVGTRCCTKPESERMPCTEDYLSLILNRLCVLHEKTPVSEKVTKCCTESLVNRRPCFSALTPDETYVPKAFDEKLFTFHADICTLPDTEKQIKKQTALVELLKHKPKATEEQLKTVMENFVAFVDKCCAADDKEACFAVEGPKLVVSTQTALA

B1: trypsin: Proteomics grade trypsin protease, Sigma-Aldrich T6567 (protein, UniProt P00761 9-231, looked up)
Trypsin: IVGGYTCAANSIPYQVSLNSGSHFCGGSLINSQWVVSAAHCYKSRIQVRLGEHNIDVLEGNEQFINAAKIITHPNFNGNTLDNDIMLIKLSSPATLNSRVATVSLPRSCAAAGTECLISGWGNTKSSGSSYPSLLQCLKAPVLSDSSCKSSYPGQITGNMICVGFLEGGKDSCQGDSGGPVVCNGQLQGIVSWGYGCAQKNKPGVYTKVCNYVNWIQQTIAAN
For the molecule B1, the “apparent first order rate constant for tryptic digestion” value was found to be 0.1302 min⁻¹ with BSA [1] and 0.1466 min⁻¹ with BSA [2]. Moreover, the “pseudo-first order rate constant for digestion of BSA” value with BSA [3] is 0.1 to 0.2 min⁻¹; with BSA [5], 0.3 min⁻¹. Besides, in the assay with BSA [4], the “digestion of BSA by SDS-PAGE” value is “complete digestion”.
